Target: CLTB-106 (negative control)
Experiment: ELISA, peptide at 1 ug per well, 2F5 at 40 ng per well; negative control

Substance: human neutralizing monoclonal antibody 2F5
- Absorbance (450 nm) (absorbance at 450 nm): 0.07
